According to patent US20210317480:

How the values were obtained:
[1] = test system: T1, G8PEX from bacteriophage I2-2
T1 sequence: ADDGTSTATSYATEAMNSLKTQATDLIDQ

[2] = test system: T2, G8PEX from Pseudomonas phage Pf1
T2 sequence: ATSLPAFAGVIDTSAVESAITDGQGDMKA

[3] = test system: T3, G8PEX from bacteriophage f1
T3 sequence: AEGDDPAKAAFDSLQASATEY

[4] = test system: T4, G8PEX, extracellular region of the major coat protein G8P from bacteriophage M13
T4 sequence: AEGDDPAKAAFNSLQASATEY

[5] = test system: T5, G8PEX ortholog peptide from L. monocytogenes (strain M7) bacteriophage M7
T5 sequence: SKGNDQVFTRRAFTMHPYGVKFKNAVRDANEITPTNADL

## Streptococcus pyogenes Cas9 nuclease (SpCas9)
[1]
  in vitro cleavage activity of SpCas9: could efficiently inhibit the cleavage activity of SpCas9 in vitro
[2]
  in vitro cleavage activity of SpCas9: could efficiently inhibit the cleavage activity of SpCas9 in vitro
[3]
  in vitro cleavage activity of SpCas9: could efficiently inhibit the cleavage activity of SpCas9 in vitro
[4]
  in vitro DNA cleavage by pre-assembled Cas9 RNP: the activity of pre-assembled Cas9 RNP was not affected by G8PEX
  in vitro cleavage activity of SpCas9: could efficiently inhibit the cleavage activity of SpCas9 in vitro
[5]
  DNA cleavage activity of SpCas9: efficiently prohibited SpCas9 to bind to sgRNA (FIG. 7d) or cleave DNA substrate (FIG. 7e)
